{"source": "FireProtDB (doi:10.1074/jbc.m110728200)", "proteins": {"B1": {"name": "Lysozyme C wild type, P61626 (protein)", "chain": "MKALIVLGLVLLSVTVQGKVFERCELARTLKRLGMDGYRGISLANWMCLAKWESGYNTRATNYNAGDRSTDYGIFQINSRYWCNDGKTPGAVNACHLSCSALLQDNIADAVACAKRVVRDPQGIRAWVAWRNRCQNRDVRQYVQGCGV"}}, "details": "Homo sapiens; pH 2.7; Thermal; DSC; Gly-HCl 0.05 M; whole UniProt chain shown", "data": [{"protein": "B1", "values": [{"measurement": "Tm", "value": 64.9, "unit": "°C"}, {"measurement": "heat capacity change of unfolding", "value": 1.58, "unit": "kcal/mol/K"}, {"measurement": "unfolding enthalpy (calorimetric)", "value": 114, "unit": "kcal/mol"}]}]}
